Laboratory results reported in patent US20240294646A1.

Legend:
[1] = target: Soluble FcγRIIaR extracellular domain with C-terminal 10xHis tag (UniProt P12318); assay: SPR, antibody captured on HER2, receptor as analyte; affinity fold over wild-type v16463
[2] = target: Soluble FcγRIIb extracellular domain with C-terminal 10xHis tag (UniProt P31994); assay: as above
[3] = target: Soluble FcγRIIb extracellular domain with C-terminal 10xHis tag (UniProt P31994); assay: SPR; IIb/IIaR selectivity against control v27294
[4] = target: Soluble FcγRIIb extracellular domain with C-terminal 10xHis tag (UniProt P31994); assay: SPR; IIb-Fold / IIaR-Fold (FcγRIIb over FcγRIIaR)
[5] = target: Soluble FcγRIIb extracellular domain with C-terminal 10xHis tag (UniProt P31994); assay: SPR; FcγRIIb affinity fold against control v27294

Soluble FcγRIIb extracellular domain with C-terminal 10xHis tag, sequence (P31994 other isoform, or with tags, fused parts or gaps): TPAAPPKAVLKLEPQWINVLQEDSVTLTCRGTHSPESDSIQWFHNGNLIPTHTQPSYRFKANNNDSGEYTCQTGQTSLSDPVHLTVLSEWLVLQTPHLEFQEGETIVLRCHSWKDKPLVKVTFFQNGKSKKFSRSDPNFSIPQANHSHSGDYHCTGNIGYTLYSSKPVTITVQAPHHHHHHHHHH
Soluble FcγRIIaR extracellular domain with C-terminal 10xHis tag, sequence (P12318 other isoform, or with tags, fused parts or gaps): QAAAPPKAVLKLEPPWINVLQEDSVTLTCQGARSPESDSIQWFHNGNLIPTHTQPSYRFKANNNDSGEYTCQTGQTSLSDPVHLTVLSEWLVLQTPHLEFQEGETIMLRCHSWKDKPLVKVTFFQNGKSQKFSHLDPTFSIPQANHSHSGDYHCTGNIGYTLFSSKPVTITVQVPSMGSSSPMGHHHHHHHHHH

## Variant v26716, A_D270F_strat2, one-armed trastuzumab antibody
[1]
  IIaR-fold: 6.4 fold
[2]
  IIb-Fold: 86.7 fold
[3]
  IIb Selectivity Improvement wrt Control: 1 fold
[4]
  IIb Selectivity: 13.5 fold
[5]
  IIb-Fold wrt Control: 0.9 fold

## Variant v26744, A_P271H_strat2, one-armed trastuzumab antibody
[1]
  IIaR-fold: 3.9 fold
[2]
  IIb-Fold: 59.3 fold
[3]
  IIb Selectivity Improvement wrt Control: 1.1 fold
[4]
  IIb Selectivity: 15.1 fold
[5]
  IIb-Fold wrt Control: 0.6 fold

## Variant v26734, A_P271W_strat2, one-armed trastuzumab antibody
[1]
  IIaR-fold: 4.3 fold
[2]
  IIb-Fold: 52.5 fold
[3]
  IIb Selectivity Improvement wrt Control: 0.9 fold
[4]
  IIb Selectivity: 12.3 fold
[5]
  IIb-Fold wrt Control: 0.6 fold

## Variant v26715, A_D270I_strat2, one-armed trastuzumab antibody
[1]
  IIaR-fold: 3.8 fold
[2]
  IIb-Fold: 57.9 fold
[3]
  IIb Selectivity Improvement wrt Control: 1.1 fold
[4]
  IIb Selectivity: 15.2 fold
[5]
  IIb-Fold wrt Control: 0.6 fold

## Variant v26746, A_E272A_strat2, one-armed trastuzumab antibody
[1]
  IIaR-fold: 4.5 fold
[2]
  IIb-Fold: 70.8 fold
[3]
  IIb Selectivity Improvement wrt Control: 1.2 fold
[4]
  IIb Selectivity: 15.9 fold
[5]
  IIb-Fold wrt Control: 0.8 fold

## Variant v26723, A_D270E_strat2, one-armed trastuzumab antibody
[1]
  IIaR-fold: 7.3 fold
[2]
  IIb-Fold: 109 fold
[3]
  IIb Selectivity Improvement wrt Control: 1.1 fold
[5]
  IIb-Fold wrt Control: 1.2 fold

## Variant v26757, A_E272D_strat2, one-armed trastuzumab antibody
[1]
  IIaR-fold: 4.9 fold
[2]
  IIb-Fold: 66.6 fold
[3]
  IIb Selectivity Improvement wrt Control: 1 fold
[4]
  IIb Selectivity: 13.5 fold
[5]
  IIb-Fold wrt Control: 0.7 fold

## Variant v26749, A_E272I_strat2, one-armed trastuzumab antibody
[1]
  IIaR-fold: 6.1 fold
[2]
  IIb-Fold: 83.8 fold
[3]
  IIb Selectivity Improvement wrt Control: 1 fold
[4]
  IIb Selectivity: 13.7 fold
[5]
  IIb-Fold wrt Control: 0.9 fold

## Variant v26753, A_E272T_strat2, one-armed trastuzumab antibody
[1]
  IIaR-fold: 4.3 fold
[2]
  IIb-Fold: 62.8 fold
[3]
  IIb Selectivity Improvement wrt Control: 1.1 fold
[4]
  IIb Selectivity: 14.7 fold
[5]
  IIb-Fold wrt Control: 0.7 fold

## Variant v26743, A_P271K_strat2, one-armed trastuzumab antibody
[1]
  IIaR-fold: 4.3 fold
[2]
  IIb-Fold: 55.7 fold
[3]
  IIb Selectivity Improvement wrt Control: 1 fold
[4]
  IIb Selectivity: 12.9 fold
[5]
  IIb-Fold wrt Control: 0.6 fold

## Variant v26720, A_D270S_strat2, one-armed trastuzumab antibody
[1]
  IIaR-fold: 3.9 fold
[2]
  IIb-Fold: 49.5 fold
[3]
  IIb Selectivity Improvement wrt Control: 0.9 fold
[4]
  IIb Selectivity: 12.7 fold
[5]
  IIb-Fold wrt Control: 0.5 fold

## Variant v26741, A_P271E_strat2, one-armed trastuzumab antibody
[1]
  IIaR-fold: 5.1 fold
[2]
  IIb-Fold: 59.3 fold
[3]
  IIb Selectivity Improvement wrt Control: 0.9 fold
[4]
  IIb Selectivity: 11.7 fold
[5]
  IIb-Fold wrt Control: 0.6 fold

## Variant v26726, A_D270H_strat2, one-armed trastuzumab antibody
[1]
  IIaR-fold: 4.1 fold
[2]
  IIb-Fold: 61.7 fold
[3]
  IIb Selectivity Improvement wrt Control: 1.1 fold
[4]
  IIb Selectivity: 14.9 fold
[5]
  IIb-Fold wrt Control: 0.7 fold

## Variant v26721, A_D270Q_strat2, one-armed trastuzumab antibody
[1]
  IIaR-fold: 3.6 fold
[2]
  IIb-Fold: 51.7 fold
[3]
  IIb Selectivity Improvement wrt Control: 1.1 fold
[4]
  IIb Selectivity: 14.6 fold
[5]
  IIb-Fold wrt Control: 0.6 fold

## Variant v26738, A_P271Q_strat2, one-armed trastuzumab antibody
[1]
  IIaR-fold: 4 fold
[2]
  IIb-Fold: 56.1 fold
[3]
  IIb Selectivity Improvement wrt Control: 1.1 fold
[4]
  IIb Selectivity: 14.1 fold
[5]
  IIb-Fold wrt Control: 0.6 fold

## Variant v26712, A_D270A_strat2, one-armed trastuzumab antibody
[1]
  IIaR-fold: 3.8 fold
[2]
  IIb-Fold: 49.9 fold
[3]
  IIb Selectivity Improvement wrt Control: 1 fold
[4]
  IIb Selectivity: 13 fold
[5]
  IIb-Fold wrt Control: 0.5 fold

## Variant v26756, A_E272N_strat2, one-armed trastuzumab antibody
[1]
  IIaR-fold: 3.6 fold
[2]
  IIb-Fold: 57.6 fold
[3]
  IIb Selectivity Improvement wrt Control: 1.2 fold
[4]
  IIb Selectivity: 15.8 fold
[5]
  IIb-Fold wrt Control: 0.6 fold

## Variant v26742, A_P271R_strat2, one-armed trastuzumab antibody
[1]
  IIaR-fold: 4.4 fold
[2]
  IIb-Fold: 47.1 fold
[3]
  IIb Selectivity Improvement wrt Control: 0.8 fold
[4]
  IIb Selectivity: 10.7 fold
[5]
  IIb-Fold wrt Control: 0.5 fold

## Variant v26719, A_D270T_strat2, one-armed trastuzumab antibody
[1]
  IIaR-fold: 4.9 fold
[2]
  IIb-Fold: 64.2 fold
[3]
  IIb Selectivity Improvement wrt Control: 1 fold
[4]
  IIb Selectivity: 13.2 fold
[5]
  IIb-Fold wrt Control: 0.7 fold

## Variant v26739, A_P271N_strat2, one-armed trastuzumab antibody
[1]
  IIaR-fold: 3.4 fold
[2]
  IIb-Fold: 50.9 fold
[3]
  IIb Selectivity Improvement wrt Control: 1.1 fold
[4]
  IIb Selectivity: 14.9 fold
[5]
  IIb-Fold wrt Control: 0.5 fold

## Variant v26718, A_D270Y_strat2, one-armed trastuzumab antibody
[1]
  IIaR-fold: 4.5 fold
[2]
  IIb-Fold: 54.6 fold
[3]
  IIb Selectivity Improvement wrt Control: 0.9 fold
[4]
  IIb Selectivity: 12.1 fold
[5]
  IIb-Fold wrt Control: 0.6 fold

## Variant v26722, A_D270N_strat2, one-armed trastuzumab antibody
[1]
  IIaR-fold: 4 fold
[2]
  IIb-Fold: 67.4 fold
[3]
  IIb Selectivity Improvement wrt Control: 1.3 fold
[4]
  IIb Selectivity: 16.7 fold
[5]
  IIb-Fold wrt Control: 0.7 fold

## Variant v26717, A_D270W_strat2, one-armed trastuzumab antibody
[1]
  IIaR-fold: 3.7 fold
[2]
  IIb-Fold: 53.5 fold
[3]
  IIb Selectivity Improvement wrt Control: 1.1 fold
[4]
  IIb Selectivity: 14.5 fold
[5]
  IIb-Fold wrt Control: 0.6 fold

## Variant v26750, A_E272F_strat2, one-armed trastuzumab antibody
[1]
  IIaR-fold: 4.5 fold
[2]
  IIb-Fold: 61.2 fold
[3]
  IIb Selectivity Improvement wrt Control: 1 fold
[4]
  IIb Selectivity: 13.5 fold
[5]
  IIb-Fold wrt Control: 0.7 fold

## Variant v26732, A_P271I_strat2, one-armed trastuzumab antibody
[1]
  IIaR-fold: 4.4 fold
[2]
  IIb-Fold: 56.9 fold
[4]
  IIb Selectivity: 12.9 fold
[5]
  IIb-Fold wrt Control: 0.6 fold

## Variant v26748, A_E272L_strat2, one-armed trastuzumab antibody
[1]
  IIaR-fold: 5.3 fold
[2]
  IIb-Fold: 81.3 fold
[3]
  IIb Selectivity Improvement wrt Control: 1.1 fold
[4]
  IIb Selectivity: 15.2 fold
[5]
  IIb-Fold wrt Control: 0.9 fold

## Variant v26740, A_P271D_strat2, one-armed trastuzumab antibody
[1]
  IIaR-fold: 3.4 fold
[2]
  IIb-Fold: 50.5 fold
[3]
  IIb Selectivity Improvement wrt Control: 1.1 fold
[4]
  IIb Selectivity: 14.9 fold
[5]
  IIb-Fold wrt Control: 0.5 fold

## Variant v26745, A_E272G_strat2, one-armed trastuzumab antibody
[1]
  IIaR-fold: 4.5 fold
[2]
  IIb-Fold: 51.6 fold
[3]
  IIb Selectivity Improvement wrt Control: 0.9 fold
[4]
  IIb Selectivity: 11.6 fold
[5]
  IIb-Fold wrt Control: 0.6 fold

## Variant v26728, A_P271G_strat2, one-armed trastuzumab antibody
[1]
  IIaR-fold: 4.8 fold
[2]
  IIb-Fold: 65.4 fold
[4]
  IIb Selectivity: 13.5 fold
[5]
  IIb-Fold wrt Control: 0.7 fold

## Variant v26730, A_P271V_strat2, one-armed trastuzumab antibody
[1]
  IIaR-fold: 3.6 fold
[2]
  IIb-Fold: 54.4 fold
[3]
  IIb Selectivity Improvement wrt Control: 1.1 fold
[5]
  IIb-Fold wrt Control: 0.6 fold
